Measurements from patent US20110118131A1 (published 2011).

T1: Ep-CAM (UniProt P16422 24-265, limits assumed)
T1 construct: Immobilised on the Biacore chip; construct not described
T1 sequence (looked up): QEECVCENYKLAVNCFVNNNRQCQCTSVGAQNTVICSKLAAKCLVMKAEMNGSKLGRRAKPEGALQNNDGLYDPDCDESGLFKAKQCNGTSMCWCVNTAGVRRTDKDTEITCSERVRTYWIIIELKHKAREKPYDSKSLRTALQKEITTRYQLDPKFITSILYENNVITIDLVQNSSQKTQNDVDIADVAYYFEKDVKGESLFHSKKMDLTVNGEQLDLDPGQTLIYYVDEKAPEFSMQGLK


Target: T1, Ep-CAM
Assay: Biacore, Fab periplasmic extract

fold difference in affinity vs original ING-1 [fold]	binding result	Binder
0.08		ING-1 Fab, light chain P100T (Fab, V domains shown, Fab in periplasmic extract) VH: QIQLVQSGPELKKPGETVKISCKASGYTFTKYGMNWVKQAPGKGLKWMGWINTYTEEPTYGDDFKGRFAFSLETSASTANLQINNLKSEDTATYFCARFGSAVDYWGQGTSVTVSS VL: DIVMTQAAFSNPVTLGTSGSISCRSSKSLLHSNGITYLYWYLQKPGQSPQLLIYQMSNLASGVPDRFSSSGSGTDFTLRISRVEAEDVGVYYCAQNLELTRTFGGGTKLEMKR
	no binding	ING-1 Fab, light chain Y37T (Fab, V domains shown, Fab in periplasmic extract) VH: QIQLVQSGPELKKPGETVKISCKASGYTFTKYGMNWVKQAPGKGLKWMGWINTYTEEPTYGDDFKGRFAFSLETSASTANLQINNLKSEDTATYFCARFGSAVDYWGQGTSVTVSS VL: DIVMTQAAFSNPVTLGTSGSISCRSSKSLLHSNGITTLYWYLQKPGQSPQLLIYQMSNLASGVPDRFSSSGSGTDFTLRISRVEAEDVGVYYCAQNLELPRTFGGGTKLEMKR
	no binding	ING-1 Fab, light chain R101A (Fab, V domains shown, Fab in periplasmic extract) VH: QIQLVQSGPELKKPGETVKISCKASGYTFTKYGMNWVKQAPGKGLKWMGWINTYTEEPTYGDDFKGRFAFSLETSASTANLQINNLKSEDTATYFCARFGSAVDYWGQGTSVTVSS VL: DIVMTQAAFSNPVTLGTSGSISCRSSKSLLHSNGITYLYWYLQKPGQSPQLLIYQMSNLASGVPDRFSSSGSGTDFTLRISRVEAEDVGVYYCAQNLELPATFGGGTKLEMKR
0.04		ING-1 Fab, light chain Y37A (Fab, V domains shown, Fab in periplasmic extract) VH: QIQLVQSGPELKKPGETVKISCKASGYTFTKYGMNWVKQAPGKGLKWMGWINTYTEEPTYGDDFKGRFAFSLETSASTANLQINNLKSEDTATYFCARFGSAVDYWGQGTSVTVSS VL: DIVMTQAAFSNPVTLGTSGSISCRSSKSLLHSNGITALYWYLQKPGQSPQLLIYQMSNLASGVPDRFSSSGSGTDFTLRISRVEAEDVGVYYCAQNLELPRTFGGGTKLEMKR
	no binding	ING-1 Fab, light chain R101P (Fab, V domains shown, Fab in periplasmic extract) VH: QIQLVQSGPELKKPGETVKISCKASGYTFTKYGMNWVKQAPGKGLKWMGWINTYTEEPTYGDDFKGRFAFSLETSASTANLQINNLKSEDTATYFCARFGSAVDYWGQGTSVTVSS VL: DIVMTQAAFSNPVTLGTSGSISCRSSKSLLHSNGITYLYWYLQKPGQSPQLLIYQMSNLASGVPDRFSSSGSGTDFTLRISRVEAEDVGVYYCAQNLELPPTFGGGTKLEMKR
	no binding	ING-1 Fab, light chain Y54I (Fab, V domains shown, Fab in periplasmic extract) VH: QIQLVQSGPELKKPGETVKISCKASGYTFTKYGMNWVKQAPGKGLKWMGWINTYTEEPTYGDDFKGRFAFSLETSASTANLQINNLKSEDTATYFCARFGSAVDYWGQGTSVTVSS VL: DIVMTQAAFSNPVTLGTSGSISCRSSKSLLHSNGITYLYWYLQKPGQSPQLLIIQMSNLASGVPDRFSSSGSGTDFTLRISRVEAEDVGVYYCAQNLELPRTFGGGTKLEMKR
	no binding	ING-1 Fab, light chain R101I (Fab, V domains shown, Fab in periplasmic extract) VH: QIQLVQSGPELKKPGETVKISCKASGYTFTKYGMNWVKQAPGKGLKWMGWINTYTEEPTYGDDFKGRFAFSLETSASTANLQINNLKSEDTATYFCARFGSAVDYWGQGTSVTVSS VL: DIVMTQAAFSNPVTLGTSGSISCRSSKSLLHSNGITYLYWYLQKPGQSPQLLIYQMSNLASGVPDRFSSSGSGTDFTLRISRVEAEDVGVYYCAQNLELPITFGGGTKLEMKR
0.7		ING-1 Fab, light chain Q55G (Fab, V domains shown, Fab in periplasmic extract) VH: QIQLVQSGPELKKPGETVKISCKASGYTFTKYGMNWVKQAPGKGLKWMGWINTYTEEPTYGDDFKGRFAFSLETSASTANLQINNLKSEDTATYFCARFGSAVDYWGQGTSVTVSS VL: DIVMTQAAFSNPVTLGTSGSISCRSSKSLLHSNGITYLYWYLQKPGQSPQLLIYGMSNLASGVPDRFSSSGSGTDFTLRISRVEAEDVGVYYCAQNLELPRTFGGGTKLEMKR
	no binding	ING-1 Fab, light chain Y37V (Fab, V domains shown, Fab in periplasmic extract) VH: QIQLVQSGPELKKPGETVKISCKASGYTFTKYGMNWVKQAPGKGLKWMGWINTYTEEPTYGDDFKGRFAFSLETSASTANLQINNLKSEDTATYFCARFGSAVDYWGQGTSVTVSS VL: DIVMTQAAFSNPVTLGTSGSISCRSSKSLLHSNGITVLYWYLQKPGQSPQLLIYQMSNLASGVPDRFSSSGSGTDFTLRISRVEAEDVGVYYCAQNLELPRTFGGGTKLEMKR
0.08		ING-1 Fab, light chain Y54A (Fab, V domains shown, Fab in periplasmic extract) VH: QIQLVQSGPELKKPGETVKISCKASGYTFTKYGMNWVKQAPGKGLKWMGWINTYTEEPTYGDDFKGRFAFSLETSASTANLQINNLKSEDTATYFCARFGSAVDYWGQGTSVTVSS VL: DIVMTQAAFSNPVTLGTSGSISCRSSKSLLHSNGITYLYWYLQKPGQSPQLLIAQMSNLASGVPDRFSSSGSGTDFTLRISRVEAEDVGVYYCAQNLELPRTFGGGTKLEMKR
0.9		ING-1 Fab, light chain Y37I (Fab, V domains shown, Fab in periplasmic extract) VH: QIQLVQSGPELKKPGETVKISCKASGYTFTKYGMNWVKQAPGKGLKWMGWINTYTEEPTYGDDFKGRFAFSLETSASTANLQINNLKSEDTATYFCARFGSAVDYWGQGTSVTVSS VL: DIVMTQAAFSNPVTLGTSGSISCRSSKSLLHSNGITILYWYLQKPGQSPQLLIYQMSNLASGVPDRFSSSGSGTDFTLRISRVEAEDVGVYYCAQNLELPRTFGGGTKLEMKR
	no binding	ING-1 Fab, light chain R101T (Fab, V domains shown, Fab in periplasmic extract) VH: QIQLVQSGPELKKPGETVKISCKASGYTFTKYGMNWVKQAPGKGLKWMGWINTYTEEPTYGDDFKGRFAFSLETSASTANLQINNLKSEDTATYFCARFGSAVDYWGQGTSVTVSS VL: DIVMTQAAFSNPVTLGTSGSISCRSSKSLLHSNGITYLYWYLQKPGQSPQLLIYQMSNLASGVPDRFSSSGSGTDFTLRISRVEAEDVGVYYCAQNLELPTTFGGGTKLEMKR
	no binding	ING-1 Fab, light chain R101G (Fab, V domains shown, Fab in periplasmic extract) VH: QIQLVQSGPELKKPGETVKISCKASGYTFTKYGMNWVKQAPGKGLKWMGWINTYTEEPTYGDDFKGRFAFSLETSASTANLQINNLKSEDTATYFCARFGSAVDYWGQGTSVTVSS VL: DIVMTQAAFSNPVTLGTSGSISCRSSKSLLHSNGITYLYWYLQKPGQSPQLLIYQMSNLASGVPDRFSSSGSGTDFTLRISRVEAEDVGVYYCAQNLELPGTFGGGTKLEMKR
	no binding	ING-1 Fab, light chain R101V (Fab, V domains shown, Fab in periplasmic extract) VH: QIQLVQSGPELKKPGETVKISCKASGYTFTKYGMNWVKQAPGKGLKWMGWINTYTEEPTYGDDFKGRFAFSLETSASTANLQINNLKSEDTATYFCARFGSAVDYWGQGTSVTVSS VL: DIVMTQAAFSNPVTLGTSGSISCRSSKSLLHSNGITYLYWYLQKPGQSPQLLIYQMSNLASGVPDRFSSSGSGTDFTLRISRVEAEDVGVYYCAQNLELPVTFGGGTKLEMKR
	no binding	ING-1 Fab, light chain S57G (Fab, V domains shown, Fab in periplasmic extract) VH: QIQLVQSGPELKKPGETVKISCKASGYTFTKYGMNWVKQAPGKGLKWMGWINTYTEEPTYGDDFKGRFAFSLETSASTANLQINNLKSEDTATYFCARFGSAVDYWGQGTSVTVSS VL: DIVMTQAAFSNPVTLGTSGSISCRSSKSLLHSNGITYLYWYLQKPGQSPQLLIYQMGNLASGVPDRFSSSGSGTDFTLRISRVEAEDVGVYYCAQNLELPRTFGGGTKLEMKR
